# Entries after “also recorded” stand apart in the source; their conditions may differ.
# B1: FGF6: fibroblast growth factor 6; recombinant human FGF from R&D Systems, or mouse FGF6 cDNA overexpressed by lentiviral vector (protein)
# chain: KRQRRLYCNVGIGFHLQVLPDGRISGTHEENPYSLLEISTVERGVVSLFGVRSALFVAMNSKGRLYATPSFQEECKFRETLLPNNYNAYESDLYQGTYIALSKYGRVKRGSKVSPIMTVTHFLPRI
# Columns and labels:
# RIP140 (NRIP1) = assay: RIP140 mRNA expression in brown and white preadipocytes; assay type: cell-based; conditions: 200 ng/mL, three or seven days
# Procedure: (§1) Total RNA was isolated with QIAzol lysis reagent (Qiagen, Valencia, Calif.) and purified by RNeasy Mini columns (Qiagen) following the manufacture's instructions. cDNA was prepared from total RNA using the Advantage RT-PCR kit (BD Biosciences, Palo Alto, Calif.) according to manufacturer's instructions. Diluted cDNA was used in a PCR reaction with SYBR Green Master Mix (Applied Biosystems, Foster City, Calif.) and primers specifically designed for detection of the gene of interest. PCR reactions were run in duplicate for each sample and quantitated in the ABI Sequence Detection System (Applied Biosystems). Data were expressed as arbitrary units after normalization to levels of expression of internal controls for each sample. Sequences of primers for specific genes are each obtained from the published literature or designed using publically available gene sequence databases. Unless otherwise indicated, gene expression data described in the examples below was obtained using QPCR.
# RIP140 directs DNA methylation and interacts with nuclear receptors to silence UCP1 expression and suppress mitochondrial biogenesis in white adipocytes (Kiskinis E. et al., EMBO J. 26:4831-4840, 2007; Powelka A. M. et al., J. Clin. Invest. 116:125-136, 2006; Wang H. et al., Mol. Cell. Biol. 28:2187-2200, 2008). […]
# PTGS2 (COX2) = assay: PTGS2 mRNA / COX2 protein expression in WT-1 brown preadipocytes; assay type: cell-based, murine
# Procedure: as §1
# Cells were harvested in lysis buffer (50 mM HEPES, 137 mM NaCl, 1 mM MgCl2, 1 mM CaCl2, 10 mM Na2P2O7, 10 mM NaF, 2 mM EDTA, 10% glycerol, 1% Igepal CA-630, 2 mM vanadate, 10 μg/ml of leupeptin, 10 μg/ml of aprotinin, 2 mM phenylmethylsulfonyl fluoride; pH 7.4). After lysis, lysates were clarified by centrifugation at 12,000×g for 20 min at 4° C., the amount of protein in the supernatants was determined by the Bradford Protein Assay (Bio-Rad Laboratories, Hercules, Calif.). Proteins were directly solubilized in Laemmli sample buffer. Equal amounts of lysates were separated by sodium dodecyl sulfate-polyacrylamide gel electrophoresis and transferred to Immobolin-P membranes. Membranes were blocked overnight at 4° C. and incubated with the indicated antibody for 2 hours at room temperature. Specifically bound primary antibodies were detected with peroxidase-coupled secondary antibody and enhanced chemiluminescence (ECL, Amersham Biosciences, Piscataway, N.J.).
# To determine if FGF4, FGF5, FGF6, FGF10, FGF16, FGF17, FGF18 or FGF20 induced either UCP1 mRNA or PTGS2 mRNA expression, murine brown preadipocyte WT-1 cells (Tseng et al., Nat. Cell. Biol. (2005) 7(6):601-611) were grown in growth media (DMEM-high glucose+10% FBS) supplemented with FGF4, FGF5, FGF6, FGF10, FGF16, FGF17, FGF18, FGF20 or buffer (control) in combination with insulin (20 nM) and triidothyronine (T3, 1 nM) for three days. All FGFs were used at a dosage of 200 ng/mL. mRNA was isolated and UCP1 and PTGS2 gene expression levels were evaluated by quantitative reverse transcription polymerase chain reaction (Q-RT-PCR) analysis. All experiments were performed triplicate and the data are presented as mean+/−SEM.
# To determine if FGF1 or FGF10 induce UCP1 mRNA expression or PTGS2 mRNA expression, murine brown preadipocyte WT-1 cells (Tseng et al., Nat. Cell. Biol. (2005) 7(6):601-611) were grown in growth media (DMEM-high glucose+10% FBS) supplemented with FGF1, FGF10 or vehicle (control) in combination with insulin (20 nM) and triidothyronine (T3, 1 nM) for three days. FGF1 and FGF10 were used at a dosage of 50 ng/mL, 100 ng/mL or 300 ng/mL. mRNA was isolated and UCP1 and PTGS2 expression levels were evaluated by quantitative reverse transcription polymerase chain reaction (Q-RT-PCR) analysis. All experiments were performed triplicate and the data are presented as mean+/−SEM.
# To test the role of specific prostaglandins (PGs) in activating UCP1 expression, WT-1 brown adipocytes were pretreated with PGE2, PGI2 and FGF6 for 24 hours. mRNA expression levels of UCP1, PTGS2, LDHA, PDK1 and PKM2 were then measured.
# mature brown adipocytes = assay: Oxygen consumption rate in mature brown adipocytes (Seahorse); assay type: cell-based; conditions: 24 hours; vs buffer
# Procedure: To assess mitochondrial respiration, a Seahorse Extracellular Flux Analyzer (Seahorse Bioscience Inc., North Billerica, Mass.) was used to quantify oxygen consumption rates (OCR) of differentiated […] brown adipocytes. Wt-1 brown preadipocyte cells were seeded on 24-well format plates and allowed to adhere overnight. After adipogenic induction for 8 days, OCR was analyzed. To measure OCR […] oxidative phosphorylation, 0.5 μM oligomycin (EMD Chemicals Inc., Gibbstown, N.J.) was added to cells. Subsequently, 0.8 μM FCCP (carbonyl cyanide-p-trifluoromethoxyphenylhydrazone) and 1 μM respiratory chain inhibitors (rotenone) were added to measure maximal respiration and basal rates of nonmitochondrial respiration. As shown in FIGS. 23A and 23B, treatment of FGF6 enhanced oxygen consumption and glucose uptake in mature brown adipocytes. Thus, FGF6 was able to activate the mature brown adipocyte's ability to use glucose and increase energy expenditure without inducing UCP-1.
# [1] = Glucose levels after subcutaneous injection in Chow or high fat diet mice; assay type: in vivo, C57BL6 mice; conditions: 0.5 mg/kg subcutaneous; vs buffer
# Procedure: To determine whether induction of UCP1 and mitochondrial activity by FGF6 could lead to increased nutrient utilization and lower blood glucose or fatty acid in obese mice, diet-induced obese (DIO) mice were treated with recombinant FGF6, and glucose levels were monitored after injection. Specifically, C57BL6 mice (11 weeks) were fed on either a high fat diet (HFD) or a Chow diet (a regular animal diet as a control) and were injected subcutaneously with 0.5 mg/kg recombinant FGF6 (n=5) or buffer (n=5). Glucose levels were measured every 6 hours after injection.
# preadipocytes = assay: Transmission electron microscopy of mitochondria in preadipocytes; assay type: cell-based; conditions: preadipocytes overexpressing FGF6 vs control
# Procedure: To determine if FGF6 treatment affects the overall health condition of mitochondria, mitochondrial attributes such as mitochondria biogenesis, mass, morphology and dynamics were measured. Mitochondrial mass was measured by a cell-permeable dye (MitoTracker Green FM) and by transmission electron microscopy (EM). MitoTracker Green FM accumulates in mitochondria in live cells irrespective of mitochondrial membrane potential. The intensity of fluorescence was visualized by microscopy and quantitated by flow cytometry. Mitochondrial morphology and ultra-structure (such as cristae and granules) was assessed by EM.
molecule,measurement,setting,value
B1,reduction of RIP140 mRNA expression,RIP140 (NRIP1),50-80%
same,PTGS2 mRNA expression relative to the control,"PTGS2 (COX2); 200 ng/mL with insulin and T3, three days",increased
same,PTGS2 mRNA expression,"PTGS2 (COX2); 50-300 ng/mL, three days",induced
same,"COX2 protein expression, Western blot","PTGS2 (COX2); 50-300 ng/mL, three days, dose-dependent",increased
same,PTGS2 mRNA expression,"PTGS2 (COX2); WT-1, 24 hours, vs vehicle",significantly induced
same,oxygen consumption in mature brown adipocytes,mature brown adipocytes,enhanced
same,"glucose level, Chow diet mice",[1],reduction in glucose levels; also recorded: lowers glucose levels
same,"glucose level, high fat diet (obese) mice",[1],lowers glucose levels
same,number of mitochondria by transmission electron microscopy,preadipocytes,fewer mitochondria
same,shape of mitochondria by transmission electron microscopy,preadipocytes,longer shape
